In series [1] the target is Tyr10 (UniProt position 681, …). Kind of series: UV-vis. The following applies: 25 °C; none stated; titrated with concentrated NaOH; Cu(II)-bound: 0.9 mM Cu(II), 1.0 mM peptide.
Series [2] shares this target. Kind of series: potentiometry. The following applies: 25 °C; 0.1 M (KNO3); none; 1.0 mM peptide in 4 mM HNO3/96 mM KNO3, under argon; apo peptide (no metal).
The target in series [3] is Glu11 (UniProt position 682, …). Nature of the series: potentiometry. Conditions: 25 °C, 0.1 M (KNO3), none, 1.0 mM peptide in 4 mM HNO3/96 mM KNO3, under argon.
Series [4] has as its target Asp7 (UniProt position 678, …). Nature of the series: potentiometry. The following applies: 25 °C, 0.1 M (KNO3), none, 1.0 mM peptide in 4 mM HNO3/96 mM KNO3, under argon.
Series [5] has as its target His6 (UniProt position 677, …). Nature of the series: potentiometry. The following applies: 25 °C; 0.1 M (KNO3); none; 1.0 mM peptide in 4 mM HNO3/96 mM KNO3, under argon; apo peptide (no metal).
Series [6] concerns the target Nterm5 (UniProt position 676, …). Nature of the series: potentiometry. The following applies: 25 °C; 0.1 M (KNO3); none; 1.0 mM peptide in 4 mM HNO3/96 mM KNO3, under argon; apo peptide (no metal).
The target in series [7] is Tyr10 (UniProt position 681, …). Nature of the series: other (circular dichroism). The following applies: 25 °C; none stated; titrated with concentrated NaOH; Cu(II)-bound: 0.9 mM Cu(II), 1.0 mM peptide.
Where [8] appears, read: Cu(II)-bound, mononuclear 3N complex (Arg5 N-terminal amine, Arg5-His6 amide N-, His6 imidazole, equatorial H2O), peptide:metal ratios 1:2, 1:1 and 1:0.5.

Consider 3 proteins from paper PMC7539298.

As to RHDSGYEV [Amyloid-beta peptide fragment 5-12 (Abeta5-12) (Homo sapiens)], the pKa (as a rule, the negative logarithm of the acid dissociation constant) in series [1] was 8.95(7); in series [2], 10.08; in series [3] (setting [8]) it was 4.69; in series [3] (apo peptide (no metal)), 4.37; in series [4] (setting [8]), 3.23; in series [4] (apo peptide (no metal)), 2.73. Moreover, the pKa is recorded as 6.25 in series [5], 7.52 in series [6] and 8.89(3) in series [7].

For the protein RHDSG [Amyloid-beta peptide fragment 5-9 (Abeta5-9) (Homo sapiens)], the pKa in series [4] (setting [8]) stood at 3.82; in series [4] (apo peptide (no metal)), 3.17; in series [5], 6.13; in series [6], 7.37.

On to RHDSGYEVHHQK [Amyloid-beta peptide fragment 5-16 (Abeta5-16) (Homo sapiens)], for which the pKa in series [3] (setting [8]) worked out at 4.169; in series [3] (apo peptide (no metal)), 3.92; in series [4] (setting [8]) it was 3.212; in series [4] (apo peptide (no metal)) it was 2.48; in series [6], 7.60.
